The test deals with T1, His-tagged human CD40 (h-CD40-his) recombinant protein (human, UniProt P25942 21-193).
T1 construct: range 21-193; Commercial reagent from Acrobiosystems; also called human CD40-his; not shown: His tag
The test is described as follows: Biacore SPR. The text has this:
According to the method described in the instruction available from Human Anti-capture Kit (Cat.# BR-1008-39, GE), human anti-capture antibody was covalently coupled to biosensing chip CM5 of the Biacore instrument (Biacore X100, GE), a certain amount of chimeric or humanized antibodies to be tested was affinity-captured, and then a series of concentration gradients of CD40 antigen (CD40 antigen purchased from Acrobiosystems) flowed through the surface of the chip. Biacore instrument (Biacore X100, GE) was used to detect the reaction signal in real-time, thus to obtain the association and dissociation curves. After each cycle of dissociation was completed, the biochip was washed and regenerated with a regeneration solution provided by the Human Anti-capture Kit. The amino coupling kit used in the test was purchased from GE (Cat. # BR-1000-50, GE), and HBS-EP+10× buffer solution (Cat. # BR-1006-69, GE) was diluted to 1×(pH 7.4) with double distilled water.
The data obtained from the test was fitted against a (1:1) Binding model using BiacoreX100 evaluation software2.0 GE, and the affinity value was obtained, as shown in Table 10 and Table 11.
In general terms: In SPR one partner is held on a chip, and binding of the other changes the refractive index at the surface.

T1 sequence (P25942 21-193 limits assumed): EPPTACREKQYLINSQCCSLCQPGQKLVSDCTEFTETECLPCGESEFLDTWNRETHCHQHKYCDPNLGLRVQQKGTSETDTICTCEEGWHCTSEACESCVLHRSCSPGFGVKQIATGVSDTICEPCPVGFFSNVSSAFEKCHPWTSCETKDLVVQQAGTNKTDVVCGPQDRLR

B1: humanized antibody hu9E5 (H1c heavy chain, L1a light chain) (antibody, human IgG1, kappa, V domains shown)
VH: QVQLVQSGAEVKKPGASVKVSCKASGYILTTYWITWVRQAPGQGLEWMGDIHPGSGSTKYNEKFKSRVTLTVDTSISTAYMELSRLRSEDTAVYYCARRDYWGQGTTVTVSS
VL: DIVMTQSPLSLPVTPGEPASISCRSSQNIVNSQGNTYLEWYLQKPGQSPQLLIYKVTNRFSGVPDRFSGSGSGTDFTLKISRVEAEDVGVYYCFQASLVPWTFGGGTKVEIKR
notes: also called Hu9E5-25
Take B1: the “fold affinity against the Alligator control” value is at least 10 times and the “fold affinity against the Pfizer Control” value is at least 4 times.

The record behind these values is patent US20220025060A1 (JIANGSU HENGRUI MEDICINE, published 2022).
